Experiment [1] concerns the target Histones (bovine), Sigma-Aldrich H9250 (bovine). In words: ITC. (Isothermal titration calorimetry measures the heat released or taken up as one component is titrated into another.)
Experiment [2] has the same target. Put plainly: ITC. This is another data set of the same source.

Where two headings read alike, the source gives them in different places.

Broadly, the Kd is the equilibrium constant for the complex coming apart. A low value points to higher affinity. Turning to βL-crystallin (complex), in experiment [1], the Ka turned out to be 1.35e+06 M⁻¹, the Kd came out at 743 nM and the dH was -8.86 kcal/mol. In experiment [2], this molecule came in with a Ka of 1.15e+07 M⁻¹, a Kd of 86.4 nM and a dH of -10.7 kcal/mol.
In experiment [1], γ-crystallin had a Ka of 9.79e+06 M⁻¹, a dissociation constant (Kd) of 102 nM and a dH of -15.8 kcal/mol. In experiment [2], this molecule came in with a Ka of 7.85e+06 M⁻¹, a dissociation constant Kd of 127 nM and a dH of -13.4 kcal/mol.

B1: α-crystallin (complex)
chain 1: MDIAIQHPWFKRALGPFYPSRLFDQFFGEGLFEYDLLPFLSSTISPYYRQSLFRTVLDSGVSEVRSDRDKFVIFLDVKHFSPEDLTVKVQEDFVEIHGKHNERQDDHGYISREFHRRYRLPSNVDQSALSCSLSADGMLTFSGPKVPSGVDAGHSERAIPVSREEKPSSAPTS
chain 2: MDIAIHHPWIRRPFFPFHSPSRLFDQFFGEHLLESDLFPASTSLSPFYFRPPSFLRAPSWIDTGLSEMRLEKDRFSVNLDVKHFSPEELKVKVLGDVIEVHGKHEERQDEHGFISREFHRKYRIPADVDPLTITSSLSSDGVLTVNGPRRQASGPERTIPITREEKPAVTAAPKK
As to B1, in experiment [1], the Ka worked out at 3.42e+07 M⁻¹ and the Kd was 29.3 nM. Besides, in experiment [2], the Kd amounted to 400 nM and the dH is -6.29 kcal/mol.

(Values after PMC6047474.)
